According to the supplement of paper PMC9170038:

System: MS2 coat protein
Assay: apparent KD of MS2 coat protein; designed switch direction (-1 OFF switch, 1 ON switch): -1; higher = weaker reporter binding
In short: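 RNA switches sharing common flanks were transcribed by stalled E. coli RNA polymerase on Illumina chips. A doubling series of SNAP-549-labelled MS2 coat protein, from 0.7 or 1.5 nM to 3 µM, was applied in Tris-HCl pH 7.5 buffer with KCl, MgCl2, BSA, DTT, tRNA and Tween-20. Each step lasted 0.8–1.5 h at the bottom of the series and 10–20 min at the top. Normalised cluster fluorescence was curve-fitted, giving apparent KD as the per-design median over clusters.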

[1] = Eterna round: R95, input ligand: FMN 200 uM
[2] = Eterna round: R95, input ligand: microRNA oligo, concentration not stated
[3] = Eterna round: R95, input ligand: none
[4] = input ligand: microRNA oligo, concentration not stated

Sequence	apparent KD of MS2 coat protein [1]	apparent KD of MS2 coat protein [2]	apparent KD of MS2 coat protein [3]	apparent KD of MS2 coat protein (input ligand: FMN 200 uM)	apparent KD of MS2 coat protein (input ligand: none)	apparent KD of MS2 coat protein [4]
AACUAGGCAGGAUAUACAUGAGGAUCACCCAUGUGCCGAUACAAAGGGACUAACAGAGGUAGAAGGGCCUAGAA [ChP 13.04.2015 #1] (puzzle: Exclusion 3)	100 nM	36.2 nM	47.8 nM			
AACUCACAUGAGGAUCACCCAUGUGAGGAUAUGAUACUAUGUACUUCGGUACAUAGUAUCAGAAGGCAUGUGGA [Ex1-3: 90] (puzzle: Exclusion 1)		12.9 nM				
AACUGGACAGGAUAUGUUCUUGAGCACUUGAGGAUCACCCAAGUCGUCGAGAACUCAGGCACAGAAGGGUUAAUGA [Bera] (Eterna round: R97, puzzle: Exclusion 5)				35.1 nM	17.7 nM	
AACUUGUAAGGAUAUACAUGAGGAUCACCCAUGUGUCCCACGAACCGACAGGUCGUCUGUAGAAGGUGCAACAU [Eternabot (L1) Solution 88] (Eterna round: R97, puzzle: Exclusion 3)				29 nM	27.4 nM	
AAGAAACAUGAGGAUCACCCAUGUGAGGAUAUGAAAAAGAAAAUAAAAUAAAUAAUAAUCAGAAGGCACAAAGG [Mat - Mod of Hog D6] (puzzle: Exclusion 1)	43.1 nM	44.4 nM	37.3 nM			
AAGAAACAUGAGGAUCACCCAUGUGAGGAUAUGGCCCGCCCGGCGUGAGCUGGUUUUAUCAGAAGGCACAAAGG [salish99_ex1_r4_015] (Eterna round: R97, puzzle: Exclusion 1)				39.4 nM	44.6 nM	
AAGAAACAUGAGGAUCACCCAUGUGAGGAUAUGUAAAAGAAAAUAAAAUAAAGAAGAAACAGAAGGCACAAAGG [Mat - Mod of Hog D20] (puzzle: Exclusion 1)	53.4 nM	43.4 nM	43 nM			
AAGAAACAUGAGGAUCACCCAUGUGAGGAUAUGUAAAAUAAAAUAAAAUAAAGAAUAAACAGAAGGCACAAAGG [Mat - Mod of Hog D24] (puzzle: Exclusion 1)	77.9 nM	64.5 nM	49.7 nM			
AAGAACGUAGGAUAUACAUGAGGAUCACCCAUGUGAGGAAGGAGUAGGAAGCGUGGAAGUAGAAGGACGGAGAG [JR_Exclu3_Sub075] (puzzle: Exclusion 3)	27.9 nM	39.4 nM	29.3 nM			
AAGAACGUGCAAGGAUAUCUCCACCAAACCGGCAGAGAAGGUGCACAUGAGGAUCACCCAUGUGACCUAAGGCUCUUAUGAGCC [Teismace] (Eterna round: R96, puzzle: Exclusion NG 1)				46.6 nM	18.5 nM	14.6 nM
AAGAAGAAGUAAGGAUAUGAAGAUUUGGUGGUGACAUGAGGAUCACCCAUGUGAAAACAAUAAGAUCAGAAGGUAUAAGAAGAA [AK ExNG2-3] (Eterna round: R96, puzzle: Exclusion NG 2)				522 nM	405 nM	434 nM
AAGAAGACAGGAUAUACAUGAAAGAAAGAAAAGAAAAGAAAACAUGAGGAUCACCCAUGUAGAAGGGUCAAGAA [EteRNA is fun!] (Eterna round: R96, puzzle: Exclusion 2)						35.8 nM
AAGAAGAUAGGAUAUACGAGGAGAGGAGAGAAGAGGAGAGGACAUGAGGAUCACCCAUGUAGAAGGAUCAGGAA [JR_Exclu2_Sub062] (puzzle: Exclusion 2)	28.9 nM	29.6 nM	28.5 nM			
AAGAAGAUAGGAUAUACGAGGAGAGGAGAGAAGAGGUGAGGACAUGAGGAUCACCCAUGUAGAAGGAUCAGGAA [JR_Exclu2_Sub063] (Eterna round: R96, puzzle: Exclusion 2)				169 nM	109 nM	91 nM
AAGAAGAUAGGAUAUACGAGGAGAGGAGAGAAGAGGUGAGGACAUGAGGAUCACCCAUGUAGAAGGAUCAGGAA [JR_Exclu2_Sub063] (puzzle: Exclusion 2)	88.7 nM	266 nM	176 nM			
AAGAAGAUAGGAUAUACGAGGAGAGGAGAGAGAAGGUGAGGACAUGAGGAUCACCCAUGUAGAAGGAUCAGGAA [JR_Exclu2_Sub064] (puzzle: Exclusion 2)	81.3 nM	88 nM	89.9 nM			
AAGAGAGCAGGAUAUACAUGAGGAUCACCCAUGUGGGAAAUAAGUGGCGUACCACAAAGUAGAAGGGCUUUCCA [jl-ex3-4.80 Eli automod] (Eterna round: R97, puzzle: Exclusion 3)				310 nM	86.2 nM	

Sequence	apparent KD of MS2 coat protein [1]	apparent KD of MS2 coat protein [2]	apparent KD of MS2 coat protein [3]	apparent KD of MS2 coat protein (input ligand: FMN 200 uM)	apparent KD of MS2 coat protein (input ligand: none)	apparent KD of MS2 coat protein [4]
AAGAGCGUAGGAUAUACAUGAGGAUCACCCAUGUGUGGAGGACCUGGCCACAUAAGGAGUAGAAGGGCGCAUCU [Eternabot (L2) Solution 92] (Eterna round: R97, puzzle: Exclusion 3)				110 nM	87 nM	
AAGAGGUCAGGAUAUACGGAGAGAGGGAGUUGGUGAGGGUAACAUGAGGAUCACCCAUGUAGAAGGGACUAAGA [JR_Exclu2_Sub078] (puzzle: Exclusion 2)		22.4 nM				
AAGAGGUCAGGAUAUACGGGAAGAGAGAGAAGUAGAGGGUAACAUGAGGAUCACCCAUGUAGAAGGGACUAAGA [JR_Exclu2_Sub072] (puzzle: Exclusion 2)	34.5 nM	29.6 nM	33.4 nM			
AAGAUGUGAGGAUAUCACGAGAGCGUCACACGGACGCCCUCUGAGAAGGCACAUGAGGAUCACCCAUGUCCAAA [EX4 A.22] (Eterna round: R97, puzzle: Exclusion 4)				387 nM	65 nM	
AAGCUCACACGCUCGUCUUACAUGAGGAUCACCCAUGUCGCCGAGCUUCACAGGCUGAAGCUCAUAUAGGGUCAUGA [Eternabot (L2) Solution 26] (Eterna round: R97, puzzle: Sensor, turn-off variant 1)				85.1 nM	91.7 nM	
AAGGAACAUGAGGAUCACCCAUGUGAGGAUAUGUGAGAAGGAUUUGAGAAGGAGAGGGACAGAAGGCACUAGGA [JR_Exclu1_Sub081] (puzzle: Exclusion 1)		34.7 nM				
AAGGGUGCCUUUAGAAAGACAUGAGGAUCACCCAUGUAGACUGAGGAUAUCCACUCCUAAGGACCGGAGAAGGCAGUGUAAUGC [Ex NG3 #62] (Eterna round: R96, puzzle: Exclusion NG 3)				62.1 nM	31.8 nM	18.6 nM
AAGGUGUUAGGAUAUCGGAGGUUGAGGCAGACGGGAAUUUUCGAGAAGGAACAUGAGGAUCACCCAUGUAGUAG [JR_Exclu4_Sub038] (puzzle: Exclusion 4)	19.1 nM	22.7 nM	21.3 nM			
AAGUACCGUCACGAAAGUGAUGGUACAACAAGCAUGUAAACAUGAGGAUCACCCAUGUCCUCAUAUGCUCGUCUUAU [Sensor 3 - 63] (puzzle: Sensor v3, turn-off variant 2)	480 nM	32.5 nM	533 nM			
AAGUACCGUCACGAUAGUGAUGGUACAACAAGCAUGUAAACAUGAGGAUCACCCAUGUCCUCAAUUGCUCGUCUUAU [Sensor 3 - 68] (Eterna round: R96, puzzle: Sensor v3, turn-off variant 2)				956 nM	1060 nM	809 nM
AAGUACCGUCACGAUAGUGAUGGUACAACAAGCAUGUAAACAUGAGGAUCACCCAUGUCCUCAAUUGCUCGUCUUAU [Sensor 3 - 68] (puzzle: Sensor v3, turn-off variant 2)	692 nM	570 nM	842 nM			
AAGUACCGUCACGAUAGUGAUGGUACAACAAGUGGUGAAACAUGAGGAUCACCCAUGUCCUCAAUUGCUCGUCUUAU [Sensor 3 - 85] (puzzle: Sensor v3, turn-off variant 2)	1030 nM	231 nM	999 nM			
AAGUACCGUCACGAUAGUGAUGGUACAGCAAGCAUGUAAACAUGAGGAUCACCCAUGUCCUCAAUUGCUCGUCUUAU [Sensor 3 - 70] (puzzle: Sensor v3, turn-off variant 2)	725 nM	785 nM	764 nM			
AAGUACUACAAGCUUCGGGACAUGAGGAUCACCCAUGUUCGUCUUAUUGAUCUAGGUACGCUGACGUACCUAGAUCA [Mat - Sensor v3 - turn-off var 1 - JL Mod - D12] (puzzle: Sensor v3, turn-off variant 1)	14.9 nM	59.4 nM	14.7 nM			
AAGUAGACGGUGAGGAUAUAGGUCGAAUGACCGAUUUAGAAGGCACAUGAGGAUCACCCAUGUGGGUAACGUCG [Brourd's EX4 #30] (Eterna round: R97, puzzle: Brourd's mod of Exclusion 4)				24.1 nM	27.5 nM	
AAGUAUAGAGGAUAUAGUAGGUACUACAUGAGGAUCACCCAUGUUCUUCAUUACGUAUUUCUAGAAGGCUGAUAAA [EX-5 Malc#26] (puzzle: Exclusion 5)	484 nM	174 nM	268 nM			
AAGUAUAGAGGAUAUAGUGAGUACUACAUGAGGAUCACCCAUGUUCUUCAAAGCGUACUUCUAGAAGGCUGUUAAA [EX-5 Malc#17] (puzzle: Exclusion 5)	452 nM	263 nM	214 nM			
